Test results reported in PMC12687424, “Penetrant PKCβ mutation in ATLL displays a mixed gain-of-function” (Biochemical Journal, 2025).
FAM = fluorescein label

Experiments:
[1] = molecular target: T1, WT PKCβII catalytic domain (UniProt P05771-2 321-673, primed (phosphorylated) at the three PKC priming sites (T-loop, turn motif, hydrophobic motif)); test: fluorescence polarisation; PKCβII catalytic domain titrated into 280 nM fluorescein-PSS peptide in a cuvette; 20°C; 50 mM Tris-HCl pH 7.5, 150 mM NaCl, 5 mM MgCl2, 0.05% Brij-35, 500 μM AMP-PCP, 5% glycerol; anisotropy fitted assuming a 1:1 interaction; details: both partners purified
T1 construct: Protein kinase C beta, isoform PKCβII, catalytic domain released by TEV cleavage from GST-(3C)-PKCβII that carries a TEV site at position 321; Plasmids for WT PKCβI and PKCβII came from the laboratory archive; also called protein kinase C beta II catalytic domain; PKCβII kinase domain; source: SF21 cells (baculovirus), purified (Glutathione-Sepharose, His-TEV cleavage, Superdex 200); not shown: …

[2] = molecular target: T2, D427N PKCβII catalytic domain (UniProt P05771-2 321-673, D427N, phosphorylated at T500 and at the other two PKC priming sites in the C-terminal tail); test: as above; details: both partners purified
T2 construct: D427N is a somatic mutation found in ATLL patients; source: SF21 cells (baculovirus), purified (Glutathione-Sepharose, His-TEV cleavage, Superdex 200); not shown: GST, N-terminal, cleaved
T2 sequence (P05771 other isoform, or with tags, fused parts or gaps D427N | D427N | D427N D427N): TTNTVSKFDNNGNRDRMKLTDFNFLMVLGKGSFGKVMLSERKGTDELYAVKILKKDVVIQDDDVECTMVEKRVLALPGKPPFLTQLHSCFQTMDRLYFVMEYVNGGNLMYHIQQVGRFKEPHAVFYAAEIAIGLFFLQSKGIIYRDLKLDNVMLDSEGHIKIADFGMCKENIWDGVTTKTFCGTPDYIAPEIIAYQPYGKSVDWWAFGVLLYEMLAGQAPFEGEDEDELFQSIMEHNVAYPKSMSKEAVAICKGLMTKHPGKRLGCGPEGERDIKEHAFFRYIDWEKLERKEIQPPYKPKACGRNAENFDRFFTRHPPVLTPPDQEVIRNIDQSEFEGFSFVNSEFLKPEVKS

T1 sequence (P05771 other isoform, or with tags, fused parts or gaps): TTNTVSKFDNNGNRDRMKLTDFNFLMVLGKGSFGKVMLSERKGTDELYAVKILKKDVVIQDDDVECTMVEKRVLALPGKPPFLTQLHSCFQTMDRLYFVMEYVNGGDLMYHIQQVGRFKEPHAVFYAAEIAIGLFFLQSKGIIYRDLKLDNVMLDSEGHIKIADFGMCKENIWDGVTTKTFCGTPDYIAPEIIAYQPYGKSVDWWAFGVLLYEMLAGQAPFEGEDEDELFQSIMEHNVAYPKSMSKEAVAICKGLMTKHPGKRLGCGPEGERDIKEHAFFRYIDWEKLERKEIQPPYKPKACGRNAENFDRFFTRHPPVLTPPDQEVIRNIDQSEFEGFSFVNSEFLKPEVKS

Kd [1]: 35.3 µM | Kd [2]: 72 µM
B1: Fluorescein-PSS peptide (peptide)
peptide: {FAM}-ESTVRFARKGSLRQKNVH-NH2
notes: source: synthetic peptide (HPLC purified to >95%)
